Measured values as given in paper PMC6309364.

Target: _(SUMO)BMC-HRmm (SUMOylated BMC-H protein of Mycobacterium smegmatis) (Mycobacterium smegmatis)
Test: SEC

## _(SUMO)BMC-HRmm (SUMOylated BMC-H protein of Mycobacterium smegmatis) (natural protein)
  stoichiometry N: 6
